Data published in publication PMC5646243.

Tested on: TbRpf2 (Trypanosoma brucei (427?))
Assay: filter binding
Settings: no Rrs1; 1 mM EDTA; error presumably SEM, 3 replicates; 10 mM Tris pH 7.4, 1 mM EDTA, 100 mM NaCl, 100 ug/ml BSA, 30 min, room temperature; RNA <0.5 nM, protein 0-250 nM

Question: Which Kd does the source give for T. brucei 5S rRNA here?
Answer: The Kd was 0.026 µM.
